Tests used:
MMP9 mRNA = assay: RT-PCR analysis of MMP9 expression in Ad-VEGF-HUVEC; assay type: cell-based, Human
Procedure: (§1) FIGS. 24A-B show gelatin zymography analysis of MMP-9 and MMP-2 activity stimulated by VEGF in HUVEC. […] Transduced HUVEC were cultured on fibrin gel on the indicated day (i.e. D2, D4, D6, D8). Similar results were also obtained by using collagen gel, although induction of MMP-9 was stronger on fibrin gel than collagen gel (data not shown). […] HUVEC were transduced with Ad-N1ECDFc at the indicated doses and condition medium was collected from HUVEC cultured on collagen gel at day 4. FIGS. 24C-D show up-regulation of MMP-9 and MT1-MMP with Notch signaling. HUVEC were transduced with either Ad-LacZ or Ad-N1IC at 40 MOI. Numbers show PCR cycles. […] HUVEC were transduced with Ad-VEGF in the absence or presence of co-transduction of Ad-N1ECDFc at 40 MOI each. Ad-LacZ was co-transduced to make the same total amount of adenovirus at 80 MOI.
(§2) Requisition of MMPs for angiogenic sprouting has been established by synthetic MMP inhibitors (16). GM6001 is one broad inhibitor against MMPs including MMP2, MMP9 and MT1-MMP (18).

[1] = test system: Notch1 signaling activated by Notch ligands (Jagged1, Delta-like 1, Delta-like 4); assay: Co-culture assay of ligand-induced Notch signaling (CSL-luciferase reporter); assay type: cell-based; conditions: for Inhibition of ligand-induced Notch1 signaling (CSL reporter activity): fusion protein expression vector co-transfected into Notch1-expressing HeLa, co-culture with ligand-expressing 293 (Bosc) cells
Procedure: Notch and Notch responsive transcriptional reporters are expressed in a “Notch-responsive” cell, HeLa. Notch ligands, Jagged-1, Delta-like 1, or Delta-like 4 are expressed in a “ligand-presenting” cell, 293. Expression is mediated by transfection of individual cell populations, cells are co-cultured, and then assayed for Notch-dependent reporter activity.
To determine ligand-induced Notch signaling, co-culture assays were performed using HeLa and 293-derived Bosc cells. Transient transfections were performed by calcium phosphate precipitation. Hela cells plated 1-day prior in 10-cm plates at 1.5×10^6 were transfected with 333 ng of pBOS Notch1, 333 ng pGA981-6, and 83 ng pLNC lacZ with either 666 ng pCMV-Fc or pHyTC-N1ECDFc (333 ng for ×1, 666 ng for ×2). Bosc cells plated 1-day prior in 10-cm plates at 4×10^6 were transfected with either 680 ng pHyTc-Jagged1, pHyTc-Dll1, pHyTc-Dll4, or pHyTc-x (empty vector). One day after transfection, the cells were co-cultured in triplicate (HeLa:Bosc, 1:2) on 12-well plates for 24 hours. Cells were harvested and luciferase activity was determined 2-days post-transfection using the Enhanced Luciferase assay kit (BD PharMingen), and β-galactosidase activity was determined using the Galacto-Light Plus kit (PE Biosystems). All assays were performed in a Berthold dual-injection luminometer.
An in vitro co-culture system (FIG. 3) with ligands expressed on one cell and Notch receptor activation scored in another cell was used to measure transcriptional activation of the Notch pathway. […] The N1ECD/Fc expression vector was co-transfected at different ratios with full-length Notch1 and the CSL-luciferase reporter in HeLa cells, followed by co-culture with ligand expressing 293 cells.

MMP2 = assay: Gelatin zymography of conditioned medium of transduced HUVEC, MMP-2; assay type: cell-based, Human; conditions: co-transduction with Ad-VEGF; collagen gel, day 4
Procedure: as §1, §2

HUVEC = HUVEC proliferation (CCK-8 kit); assay type: cell-based, Human; conditions: complete medium, 4 days
Procedure: These Figures show proliferation of Ad-VEGF165-transduced HUVEC. HUVEC were transduced with Ad-VEGF165 at the indicated dosages. Ad-LacZ was also co-infected to make the same total amount of adenovirus at a MOI of 40 pfu/cell. HUVEC were suspended in SFM supplemented with 1% FBS and then plated at 1×10^4 cells/well in 24-well multi-well plates with 0.4 ml of medium. After 4 days, cell numbers were determined using the CCK-8 kit and the results are indicated as the ratio of cell numbers determined to the number of control cells, which were transduced with Ad-GFP at a MOI of 40 pfu/cell. […] Ad-VEGF-transduced HUVEC were treated with SU5416 at the indicated dosages.
These Figures show the effect of alteration of Notch signaling on cell proliferation. The cells were transduced with the indicated adenoviruses. Ad-GFP was also co-infected to make the same total amount of adenovirus at a MOI of 60 pfu/cell. After 4 days, cell numbers were determined using the CCK-8 kit and results are indicated as the ratio of cell numbers determined to the number of control cells, which were transduced with AD-GFP at MOI of 60 pfu/cell. […] Transduced HUVEC were suspended in complete medium and then plated at 1×10^4 cells/well in 24-well multiwell plates with 0.4 ml of indicated medium (□: Ad-N1IC; ▪: Ad-N1ECDFc). […]

B1: N1ECDFc: Notch-based fusion protein or decoy: extracellular domain of Notch1 containing the EGF-repeats fused to the Fc portion of an antibody (protein)
chain: ARGLRCSQPSGTCLNGGRCEVANGTEACVCSGAFVGQRCQDPSPCLSTPCKNAGTCYVVDHGGIVDYACSCPLGFSGPLCLTPLANACLANPCRNGGTCDLLTLTEYKCRCPPGWSGKSCQQADPCASNPCANGGQCLPFESSYICGCPPGFHGPTCRQDVNECSQNPGLCRHGGTCHNEIGSYRCACRATHTGPHCELPYVPCSPSPCQNGGTCRPTGDTTHECACLPGFAGQNCEENVDDCPGNNCKNGGACVDGVNTYNCRCPPEWTGQYCTEDVDECQLMPNACQNAGTCHNSHGGYNCVCVNGWTGEDCSDNIDDCASAACFQGATCHDRVASFYCECPHGRTGLLCHLNDACISNPCNEGSNCDTNPVNGKAICTCPRGYTGPACSQDVDECALGANPCEHAGKCLNTLGSFECQCLQGYTGPRCEIDVNECISNPCQNDATCLDQIGEFQCICMPGYEGVYCEINTDECASSPCLHNGRCVDKINEFLCQCPKGFSGHLCQYDVDECASTPCKNGAKCLDGPNTYTCVCTEGYTGTHCEVDIDECDPDPCHIGLCKDGVATFTCLCQPGYTGHHCETNINECHSQPCRHGGTCQDRDNYYLCLCLKGTTGPNCEINLDDCASNPCDSGTCLDKIDGYECACEPGYTGSMCNVNIDECAGSPCHNGGTCEDGIAGFTCRCPEGYHDPTCLSEVNECNSNPCIHGACRDGLNGYKCDCAPGWSGTNCDINNNECESNPCVNGGTCKDMTSGYVCTCREGFSGPNCQTNINECASNPCLNQGTCIDDVAGYKCNCPLPYTGATCEVVLAPCATSPCKNSGVCKESEDYESFSCVCPTGWQGQTCEIDINECVKSPCRHGASCQNTNGSYRCLCQAGYTGRNCESDIDDCRPNPCHNGGSCTDGVNAAFCDCLPGFQGAFCEEDINECATNPCQNGANCTDCVDSYTCTCPTGFNGIHCENNTPDCTESSCFNGGTCVDGINSFTCLCPPGFTGSYCQYDVNECDSRPCLHGGTCQDSYGTYKCTCPQGYTGLNCQNLVRWCDSAPCKNGGKCWQTNTQYHCECRSGWTGFNCDVLSVSCEVAAQKRGIDVTLLCQHGGLCVDEEDKHYCHCQAGYTGSYCEDEVDECSPNPCQNGATCTDYLGGFSCKCVAGYHGSNCSEEINECLSQPCQNGGTCIDLTNTYKCSCPRGTQGVHCEINVDDCHPPLDPASRSPKCFNNGTCVDQVGGYTCTCPPGFVGERCEGDVNECLSNPCDPRGTQNCVQRVNDFHCECRAGHTGRRCESVINGCRGKPCRNGGVCAVASNTARGFICRCPARFEGATCENDARTCGSLRCLNGGTCISGPRSPTCLCLGSFTGPECQFPASSPCVGSNPCYNQGTCEPTSESPFYRCLCPAKFNGLLCHILDYSFTDLGPG
modifications: left off: a dimerising Fc or GST
notes: Notch-based fusion protein or decoy: extracellular domain of Notch1 containing the EGF-repeats fused to the Fc portion of an antibody
- Expression of MMP9, fusion protein adenovirus alone (MMP9 mRNA; Ad-LacZ infected HUVEC, data not shown): did not affect expression of either MMP9 or MT1-MMP
- VEGF-induced up-regulation of MMP9 mRNA (MMP9 mRNA; co-transduction with Ad-VEGF, 40 MOI each): this induction was inhibited
- Concentration-dependency of inhibition of Notch1 signaling ([1]; 2:1 versus 1:1 ratio of N1ECD/Fc to Notch1 vector): a 2:1 ratio of N1ECD/Fc to Notch1 was more effective in inhibiting signaling than a 1:1 ratio
- Block of signaling by individual Notch ligands ([1]; Jagged1, Delta-like 1 or Delta-like 4 expressing cells): could block signaling mediated by Jagged1, Delta-like 1 or Delta-like 4
- Inhibition of ligand-induced Notch1 signaling (CSL reporter activity) [1]: inhibition of Notch signaling
- Inhibition of ligand-induced Notch1 signaling (CSL reporter activity) ([1]; listed as N1ECD/Fc): activation of Notch1 signaling by Notch ligands was reduced
- Inhibition of ligand-induced Notch1 signaling (CSL reporter activity) ([1]; listed as Notch1ECD/Fc): functions to block ligand-dependent Notch signaling
- Inhibition of ligand-induced Notch1 signaling (CSL reporter activity) ([1]; listed as Notch-based fusion protein): these inductions were inhibited
- VEGF-stimulated activation of MMP2 (gelatin zymography) (MMP2): inhibition
- Proliferation of transduced HUVEC (HUVEC): did not clearly alter proliferation of HUVEC
